Measured values from patent US20140194361A1, “Vault Agents for Treating Chronic Kidney Disease” (priority 2010, published 2014).

Molecular target: α5β1 integrin receptor on primary mesangial cells
Test: cell-based or functional assay

- inhibition of attachment of MC to fibronectin compared to untreated MC: 1.7 fold
Substance: D-vault (CGRGDSP peptide-INT packaged in purified vault)
